# According to article PMC6875872 (The Journal of Physical Chemistry. B, 2019):
# Molecular target: the molecule itself
# Experiment: SEC + other: DLS + other: TEM
protein,measurement,value
"cowpea chlorotic mottle virus (CCMV) capsid protein (natural protein, UniProt P03601 1-190, looked up) MSTVGTGKLTRAQRRAAARKNKRNTRVVQPVIVEPIASGQGKAIKAWTGYSVSKWTASCAAAEAKVTSAITISLPNELSSERNKQLKVGRVLLWLGLLPSVSGTVKSCVTETQTTAAASFQVALAVADNSKDVVAAMYPEAFKGITLEQLTADLTIYLYSSAALTEGDVIVHLEVEHVRPTFDDSFTPVY",stoichiometry N,60
